# Positions count from the first letter of the chain named. Names may count otherwise. No end group written: not given here. TMR = tetramethyl rhodamine dye
# T1: Rb^P S534R (human, UniProt P06400 380-788, S534R)
# T1 construct: also called variant 23
# T1 sequence (looked up): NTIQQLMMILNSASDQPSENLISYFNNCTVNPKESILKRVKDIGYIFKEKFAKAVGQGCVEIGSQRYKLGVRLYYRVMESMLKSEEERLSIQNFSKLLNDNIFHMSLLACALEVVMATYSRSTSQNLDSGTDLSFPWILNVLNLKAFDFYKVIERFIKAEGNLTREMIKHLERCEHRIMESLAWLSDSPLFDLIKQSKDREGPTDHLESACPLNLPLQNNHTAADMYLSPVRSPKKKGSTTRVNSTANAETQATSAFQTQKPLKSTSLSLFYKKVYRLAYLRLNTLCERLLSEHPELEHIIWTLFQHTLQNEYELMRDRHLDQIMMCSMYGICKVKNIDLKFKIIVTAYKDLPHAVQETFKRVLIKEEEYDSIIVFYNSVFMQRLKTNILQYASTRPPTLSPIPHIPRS
# T2: Rb^P R611S (human, UniProt P06400 380-788, R611S)
# T2 construct: also called variant 38
# T2 sequence (looked up): T1 sequence (looked up) with R155S, R232S
# T3: Rb^P R668C (human, UniProt P06400 380-788, R668C)
# T3 construct: also called variant 51
# T3 sequence (looked up): T1 sequence (looked up) with R155S, R289C
# T4: Rb^P R763T (human, UniProt P06400 380-788, R763T)
# T4 construct: also called variant 75
# T4 sequence (looked up): T1 sequence (looked up) with R155S, R384T
# T5: Rb^P K462E (human, UniProt P06400 380-788, K462E)
# T5 construct: also called variant 8
# T5 sequence (looked up): T1 sequence (looked up) with K83E, R155S
# B1: TMR-E2F1^TD, peptide of the E2F1 transactivation domain (peptide)
# peptide: {TMR}-GEGIRDLFDCDFGDLTPLD
# notes: also called E2F^TD; source: synthetic peptide, bought: GenScript
# B2: TMR-E7^LxCxE, LxCxE peptide of the E7 oncoprotein from HPV (peptide)
# peptide: DLYCYEQLN
# modifications: also: TMR label, position not given here
# notes: source: synthetic peptide, bought: GenScript
# Key:
# Assay in all cases: fluorescence polarisation; 25 °C; unlabeled Rb^P titrated against 1.5 nM TMR-E2F1^TD or 7.5 nM TMR-E7^LxCxE; 25 mM Tris pH 8.0, 200 mM NaCl, 1 mM DTT, 0.1% Tween-20; 2 min incubation; quadratic fit; apparent Kd for the variants, Kd for WT
# Conditions in all cases: both partners purified
# Rb^P S534R = molecular target: T1, Rb^P S534R
# Rb^P R611S = molecular target: T2, Rb^P R611S
# Rb^P R668C = molecular target: T3, Rb^P R668C
# Rb^P R763T = molecular target: T4, Rb^P R763T
# Rb^P K462E = molecular target: T5, Rb^P K462E
Binder,Kd (Rb^P S534R),Kd (Rb^P R611S),Kd (Rb^P R668C),Kd (Rb^P R763T),Kd (Rb^P K462E)
B1,9280 nM,15 nM,12 nM,37 nM,27 nM
B2,4 nM,5 nM,3 nM,21 nM,11 nM

# Source: article PMC11931385, “Structural and functional analysis of cancer-associated missense variants in the retinoblastoma protein pocket domain” (The Journal of Biological Chemistry, 2025)
